Experimental data reported in publication PMC6379061 (Nature, 2018).

Molecular target: the molecule itself
Assay: cryo-EM structure

B1: human ABCG2 E211Q mutant (ABCG2EQ) (natural protein)
chain: MSSSNVEVFIPVSQGNTNGFPATASNDLKAFTEGAVLSFHNICYRVKLKSGFLPCRKPVEKEILSNINGIMKPGLNAILGPTGGGKSSLLDVLAARKDPSGLSGDVLINGAPRPANFKCNSGYVVQDDVVMGTLTVRENLQFSAALRLATTMTNHEKNERINRVIQELGLDKVADSKVGTQFIRGVSGGERKRTSIGMELITDPSILFLDQPTTGLDSSTANAVLLLLKRMSKQGRTIIFSIHQPRYSIFKLFDSLTLLASGRLMFHGPAQEALGYFESAGYHCEAYNNPADFFLDIINGDSTAVALNREEDFKATEIIEPSKQDKPLIEKLAEIYVNSSFYKETKAELHQLSGGEKKKKITVFKEISYTTSFCHQLRWVSKRSFKNLLGNPQASIAQIIVTVVLGLVIGAIYFGLKNDSTGIQNRAGVLFFLTTNQCFSSVSAVELFVVEKKLFIHEYISGYYRVSSYFLGKLLSDLLPMRMLPSIIFTCIVYFMLGLKPKADAFFVMMFTLMMVAYSASSMALAIAAGQSVVSVATLLMTICFVFMMIFSGLLVNLTTIASWLSWLQYFSIPRYGFTALQHNEFLGQNFCPGLNATGNNPCNYATCTGEEYLVKQGIDLSPWGLWKNHVALACMIVIFLTIAYLKLLFLKKYS
binding result: binds
